From US11028167 (CENTIVAX, dated 2021) come the findings set out here.

Where two headings read alike, the source gives them in different places.

A word on the Kd: it is the equilibrium constant for the complex coming apart. Low readings indicate tighter binding, high ones weaker binding. Usually koff stands for the rate constant with which the complex falls apart. Broadly, the kon is the second-order rate constant of association.

What all share (assay): SPR, scFv captured by anti-V5, RBD analyte
On the technique in general: Surface plasmon resonance follows binding to a sensor surface in real time, without labels.

In assay [1] the target is SARS-CoV-1 Receptor Binding Domain (RBD) protein (SARS-CoV-1, UniProt P59594 306-527).
Assay [2] addresses MERS Receptor Binding Domain (RBD) protein (Middle East Respiratory Syndrome (MERS) …, UniProt K9N5Q8 367-606).
In assay [3] the target is T1, SARS-CoV-2 Receptor Binding Domain (RBD) protein (SARS-CoV-2, UniProt P0DTC2 319-541).
Assay [4] deals with T1, SARS-CoV-2 Receptor Binding Domain …. The source holds these as a separate data set.

B1: COVID19_P06_F03 (scFv, V domains shown)
VH: QVQLVQSGAEVKKPGASVKVSCKASGYTFTSYSMHWVRQAPGQGLEWMGAIYPGNSDTTYAQKFQGRVTMTRDTSTSTVYMELSSLRSEDTAVYYCTLDGIPQLLRTLDYWGQGTLVTVSS
VL: DIQMTQSPSSLSASVGDRVTITCRASQSISSYLNWYQQKPGKAPKLLIYGVSSLHSGVPSRFSGSGSGTDFTLTISSLQPEDFATYYCLQYVSYPWTFGGGTKVEIKR
On to B1, for which the binding result in assay [1] is “no binding (tested: 300 nM)”. Besides, the binding result in assay [2] is “no binding (tested: 300 nM)”. In assay [3], this molecule yielded a Kd of 32.6 nM, a dissociation rate constant (koff) of 0.00532 s⁻¹ and a kon of 163000 M⁻¹ s⁻¹.

B2: COVID19_R02_B08 (scFv, V domains shown)
VH: QVQLVQSGAEVKKPGASVKVSCKASGYTFTSYYIHWVRQAPGQGLEWMGIINPRGGSTSYAQKFQGRVTMTRDTSTSTVYMELSSLRSEDTAVYYCTREAKPQLLRTLDYWGQGTLVTVSS
VL: DIQMTQSPSSLSASVGDRVTITCRASQGIDTYLNWYQQKPGKAPKLLIYKASSLESGVPSRFSGSGSGTEFTLTINSLQPEDIATYYCQQYDNLPLTFGGGTKVEIKR
As for B2, in assay [4], the Kd was 166 nM.
